Assay results reported in patent publication US12655405B2, “Sequence specific degradation of single-stranded polynucleotides with CARD1 nuclease” (The Rockefeller University, priority 2020, dated 2026).

Tests used:
Tresu_2185 (CARD1) = format: biochemical, Treponema succinifaciens
Procedure: (§1) The reactions were done in a reaction buffer (20 mM Tris-HCl, pH 7.5, 150 mM NaCl, 1 mM DTT, and 5 mM MnCl2, unless otherwise stated, with 250 nM CARD1 and 2.5 uM of cA4, with 2 μg M13 ssDNA (NEB) (FIG. 1b), 500 ng of non-linearized and linearized ΦX174 dsDNA (NEB) (FIGS. 1d, e, respectively) and 2 μg ΦX174 ssDNA (NEB) (FIG. 1a). cA4 and cA6 was obtained from Biolog Life Science Institute GmbH & Co. KG (Bremen, Germany). The reaction products were visualized by agarose gel electrophoresis. For the RNA oligo cleavage assay, 250 nM of a Cy3-labelled RNA oligo was added to the reaction. The reaction products were run on Mini-PROTEAN TBE-Urea precast gel (Bio-Rad), and visualized on a TYPHOON IMAGE SCANNER. For degradation of ssRNA or dsRNA ladders, 1 ug of either ssRNA ladder (NEB) or dsRNA ladder (NEB) was digested. The reaction products were visualized by agarose gel electrophoresis. At the indicated timepoints, all reaction were stopped by the addition of 25 mM of EDTA.

[1] = system: circular ΦX174 and M13 ssDNA; assay: In vitro DNA cleavage assay, agarose gel; format: biochemical
Procedure: as §1

ΦX174 ssDNA = assay: Next-generation sequencing of ssDNA degradation products (ΦX174); format: biochemical
Procedure: (§2) To assess the ssDNA cleavage patterns of CARD1, 2 ug of ΦX174 virion DNA (New England Biolabs) or M13 ssDNA (M13mp18) (New England Biolabs) was first digested by 250 nM CARD1 with 2.5 uM of cA4 in a buffer consisting of 20 mM Tris pH 7.5, 150 mM NaCl, 1 mM DTT, and 5 mM MnCl2. At the specified time points, the reaction was quenched by adding 25 mM of EDTA. Half the reaction was visualized by agarose gel electrophoresis. The remaining digestion products from the 2 hour timepoint were purified by phenol chloroform extraction.
Without further fragmentation, the purified digested DNA was subjected to the Accel-NGS 1S Plus DNA Library Kit (Swift Biosciences), proceeding according to the manufacturer's protocol, using a 1.5× ratio of magnetic beads (AMPure XP beads by Beckman Coulter) to also include small DNA fragments. One of the library preparation steps involves the addition of on average 8 nucleotides to the 3′ end of the DNA. The 5′ end of the input DNA molecules remains unchanged. Paired-end sequencing was performed on an Illumina MiSeq. The 5′ end of each read R1 represents the start of a DNA molecule, and thus a CARD1 cut site. Using a custom python script, the location of 7,020,067 ΦX174 reads (mapping to Genbank reference NC_001422) and 7,670,616 M13 reads (mapping to Genbank reference X02513) was determined. To account for reads mapping at the circular junctions, 65 nucleotides of the first 5′ end of the maps were copied and added at the 3′ end of the maps. The DNA sequence 20 nucleotides upstream and downstream of the cut sites was extracted using a custom Python script, and the CARD1 cleavage motifs for ΦX174 and the M13 were determined separately using Weblogo3 (38), with basal nucleotide compositions determined by the compositions in each map (ΦX174 with A:24.0, C:21.4, G:23.3, T:31.3, and M13 with A:24.4, C:21.1, G:21.1, T:33.4). For the fragment size analysis, 8 nucleotides were removed from all the reads from the 3′ end pair mate by the “Trim Ends” option in the Geneious Bioinformatics Software platform (39). Using the STAR aligner (version 2.7.3) (40), 7,505,136 reads were successfully mapped to ΦX174, and 8,179,356 reads were successfully mapped to M13, using default arguments with the addition of --alignIntronMax 1 --alignMatesGapMax 6000 --peOverlapNbasesMin 5 --alignEndsProtrude 10 ConcordantPair.

M13 ssDNA = assay: Next-generation sequencing of ssDNA degradation products (M13); format: biochemical
Procedure: as §2
Without further fragmentation, the purified digested DNA was subjected to the Accel-NGS 1S Plus DNA Library Kit (Swift Biosciences), proceeding according to the manufacturer's protocol, using a 1.5× ratio of magnetic beads (AMPure XP beads by Beckman Coulter) to also include small DNA fragments. One of the library preparation steps involves the addition of on average 8 nucleotides to the 3′ end of the DNA. […] The 5′ end of each read R1 represents the start of a DNA molecule, and thus a CARD1 cut site. Using a custom python script, the location of 7,020,067 ΦX174 reads (mapping to Genbank reference NC_001422) and 7,670,616 M13 reads (mapping to Genbank reference X02513) was determined. To account for reads mapping at the circular junctions, 65 nucleotides of the first 5′ end of the maps were copied and added at the 3′ end of the maps. […]

[2] = system: ssRNA ladder, dsRNA ladder; assay: Degradation of ssRNA or dsRNA ladders; format: biochemical; conditions: 15 minutes
Procedure: as §1

[3] = system: RNA oligos with either 15 adenines, uracils, or cytosines; conditions: 5′ fluorophore and 3′ quencher; 15 A, U or C
Procedure: For determining the nucleotide cleavage preference of CARD1, the reaction was performed as above, with 1 uM of each RNA oligo (IDT). […] Fluorescent measurements were taken in a TECAN plate reader, using values from when the reaction was complete. 0.5 ul of RNaseI (Thermo Fisher Scientific), which cuts next to all RNA nucleotides, was used as a positive control.

[4] = system: recA, lexA, uvrA and umuC transcripts; assay: RT-qPCR of SOS-induced genes; format: cell-based, Staphylococcus aureus RN4220; conditions: after aTc induction; compared to d-CARD1; cells expressing Cas10HD
Procedure: Cells carrying pTarget and a pCRISPR containing either CARD1 or dCARD1 were grown overnight in triplicate, diluted 1/100 into fresh BHI with 10 ug/ml of chloramphenicol and outgrown for an hour. The cells were then diluted to an OD of 0.1. To induce targeting, aTc was added to a final concentration of 250 ng/ml. The cells were incubated with shaking for 20 minutes before being spun down at 6000×g for 5 minutes, and then lysed in PBS with 1 mg/ml of lysostaphin and 2 mg/ml of lysozyme for 10 minutes at 37° C. RNA was purified using Direct-zol RNA miniprep kit (Zymo Research) according to the manufacturer's protocol, followed by DNA depletion using TURBO DNA-free kit (Invitrogen) according to the manufacturer's protocol. To produce cDNA, approximately 2 ug of DNA-depleted RNA was treated using the SuperScript IV Reverse Transcriptase kit (Invitrogen) according to the manufacturer's protocol and random hexamer primers. The RT-qPCR reaction was performed using Fast SYBR Green Master Mix (Life Technologies) with an input of about 100 ng cDNA, in biological triplicate, using […] of each primer, on a QuantStudio 3 qPCR machine (Thermo Fisher). The housekeeping gene rho was used as an internal normalization control (37).

[5] = system: Staphylococcus aureus RN4220; assay: Growth curves, in vivo CARD1 toxicity induction; format: cell-based; conditions: pTarget + pCRISPR variant, no antibiotic selection of pTarget
Procedure: For in vivo CARD1 toxicity induction, triplicate RN4220 overnight cultures harbouring pTarget and a pCRISPR are diluted 1:100, outgrown for about an hour, and normalized for OD. Cells are then seeded in a 96 well plate. To induce targeting, 6.25-12.5 ng/ml of anhydrotetracycline (aTc) is added to the appropriate wells. Absorbance at 600 nm is then measured every 10 minutes by a microplate reader (TECAN Infinite 200 PRO). To analyze targeting escapers, cells from the end of the experiment (either cells from wells without aTc, i.e. naïve cells, or cells from wells that recovered later in the time course due to CARD1 toxicity) are re-streaked on BHI agar plates, and individual colonies were launched in liquid culture, diluted the next day, and used for a new time course experiment. From these overnight cultures, plasmid DNA was isolated (QIAgen Spin Miniprep Kit), digested by BamHI-HF (single-cutter for both pTarget and pCRISPR) (New England Biolabs), and visualized by gel electrophoresis. The deletion of important features in pTarget (making it unable to be targeted by pCRISPR) or pCRISPR was confirmed by Sanger sequencing.

S. aureus viability = assay: CARD1 toxicity assay (cfu enumeration); format: cell-based, Staphylococcus aureus
Procedure: To measure the effect of CARD1 activity on S. aureus viability over time, colonies of S. aureus harbouring pTarget and the specified pCRISPR were launched in liquid culture overnight in triplicate. The next day, cells were diluted 1:100 and grown out for about an hour, and normalized for OD. One aliquot was taken from each culture, and then aTc was added to induce CRISPR targeting and CARD1 activity (to a concentration of 3 ng/ml in FIG. 4c or 125 ng/ml in FIG. 5c). At each timepoint, cell aliquots were removed, centrifuged, resuspended in media lacking aTc, and serial dilutions were plated on solid BHI agar plates with or without aTc. All viable cells should grow on the solid agar plates, but only targeting escapers (cells that recover due to mutations in pTarget or pCRISPR) should form CFUs on plates with aTc.

pTarget = assay: Plasmid curing assay; format: cell-based, Staphylococcus aureus; conditions: but not pCRISPR
Procedure: To assess CARD1's ability to promote plasmid curing under low transcription conditions, a plasmid curing assay was performed, by adapting a known approach. Briefly, overnight cultures of S. aureus cells harbouring pTarget and a pCRISPR containing either Csm6, dCsm6, or CARD1 were diluted to exactly OD 0.15 in tryptic soy broth with 10 ug/ml chloramphenicol. After removing a cell aliquot for the 0 timepoint, aTc was added to a concentration of 9.3 ng/ml (FIG. 4e) or 125 ng/ml (FIG. 4f) and the cells were incubated at 37° C., with further aliquots taken at the indicated times. The cells were then lysed, and the plasmid DNA isolated using a QIAprep Miniprep kit (Qiagen) according to the manufacturer's protocol (Qiagen). 400 ng of plasmid was then linearized using BamHI-HF (New England Biolabs), which cuts both pTarget and pCRISPR once, followed by visualization by gel electrophoresis.

phage Φ12γ3 [6] = assay: In vivo anti-phage immunity growth curves (Φ12γ3); format: cell-based, Staphylococcus aureus RN4220
Procedure: For in vivo anti-phage immunity, cells harbouring various pCRISPRs were launched in triplicate overnight, diluted 1:100, outgrown for about an hour, and normalized for OD. Cells were seeded into a 96 well plate. Phage Φ12γ3 (25) […] was added at the appropriate multiplicity of infection, and OD measurements were taken every 10 minutes.

phage Φ12γ3 [7] = assay: Liquid anti-phage infection, PFU counts over time; format: cell-based, Staphylococcus aureus RN4220
Procedure: To obtain CFU and PFU counts over time from cultures infected with phage, RN4220 cultures harbouring various pCRISPRs were launched overnight, diluted 1:100, and outgrown for about one hour. Cells were then infected with phage Φ12γ3 at an MOI of 10, and an aliquot was taken shortly after to obtain PFUs at time 0. The cultures were then incubated further, with aliquots taken at 1 and 4 hours.

[8] = ORF9 and ORF27 transcripts targeted

## Cyclic Tetra-Adenylate [cA4]
Tresu_2185 (CARD1); 60 nucleotide RNA oligo
  degradation of RNA oligo by CARD1 in the presence of the cyclic oligoadenylate: degraded in the presence of cA4
Tresu_2185 (CARD1); circular ΦX174 and M13 ssDNA, 250 nM CARD1, 2.5 uM cA, 5 mM MnCl2, agarose gel
  degradation of ssDNA by Tresu_2185 on addition of the cyclic oligoadenylate: resulted in the degradation of circular ΦX174 and M13 ssDNA
Tresu_2185 (CARD1); supercoiled or linearized ΦX174 dsDNA
  cleavage of dsDNA by Tresu_2185 on addition of the cyclic oligoadenylate: did not promote cleavage

B1: CARD1: cA4-activated ssDNA and ssRNA nuclease of Treponema succinifaciens, SEQ ID NO:1; N-terminal CARF domain, C-terminal REase domain (protein, listed as Treponema succinifaciens)
chain: MKETILVNLVSEQTIPNVQFIKWYFNKKQTPMKILLVSTKEMEQKEKSLFIKNALHFSDSFVEWETIHTDGNDISKTENILTDYFRDNEYKNIIVNITGGTKIMSLAAFDFFNNKPNTEIFYQPIGKELQELYPNKQKYDMFEVLSLKEYLDAHGISYKYDNECVKDWNYNKTVYDLCVADNRELIKGMIALQNNSYFNNVYKRKDFLDFTQIEEEKFIAINHPAATKENMIKILQIFGFDVSRIEHKHIRYITGGWFEEYVYQKICNEYHNVDEKNVALNVTIQKGNDKNELDVIYLDKDNKLHVIECKSFVDGNEGNRVLNDALYKLQAIIKSKFGLYVKQHLYTKSIIEKETPLNRAKEFGIDIKDGTQL
[1]; ΦX174 and M13 ssDNA, smear of products
  nuclease activity on ssDNA: cA4-activated, non-specific ssDNA nuclease
[1]; ΦX174 ssDNA, with or without MnCl2
  cation requirement of ssDNA degradation: required the addition of Mn cation
ΦX174 ssDNA; stated for both ΦX174 and M13 ssDNA degradation products
  average product size: ~150 nucleotides
ΦX174 ssDNA; stated for both ΦX174 and M13 ssDNA degradation products, WebLogo
  cleavage site preference: preferentially upstream of T(A/G) sites
ΦX174 ssDNA; ΦX174, 5′ end mapping, 2 hours timepoint
  cuts that occur at the 25 most frequent positions: 26.7%
ΦX174 ssDNA; ΦX174, 2 hours timepoint
  average fragment length of degradation products: 163.6 nucleotides
M13 ssDNA; M13, 5′ end mapping
  cuts that occur at the 25 most frequent positions: 31.1%
M13 ssDNA; M13, 2 hours timepoint
  average fragment length of degradation products: 150.1 nucleotides
[2]
  degradation of single-stranded versus double-stranded RNA: Single-stranded RNA, but not double-stranded RNA, was degraded
[3]
  degradation of homopolymer RNA oligos (sequence preference): able to efficiently degrade RNAs consisting of all three bases
[4]
  expression of recA, lexA, uvrA and umuC (SOS response), normalized against rho: significant increase
[5]
  growth of cultures (OD600) after addition of aTc: severe growth defect
S. aureus viability; compared with colonies resistant to aTc (escapers)
  fraction of colonies formed in the absence of aTc that come from bona fide dormant cells: approximately half
S. aureus viability; three hours of target transcription, plated on media lacking aTc
  colony counts (viable cells) after CARD1 induction: initial decrease in colony counts of an order of magnitude
pTarget
  time after addition of the inducer at which pTarget was cleared: 20 minutes
Phage Φ12γ3 [6]; [8]
  immunity in cells that express Cas10^HD: able to provide immunity
Phage Φ12γ3 [6]; early ORF9 transcript of Φ12γ3 targeted
  need of CARD1 nuclease activity for immunity, early target: not required for immunity
Phage Φ12γ3 [6]; late ORF27 transcript of Φ12γ3 targeted
  survival of cultures after infection, late target: able to survive infection
Phage Φ12γ3 [7]; [8]
  phage titer in cultures of cells that express Cas10^HD: reduce the phage titer
Phage Φ12γ3 [7]; ORF27 transcript of Φ12γ3 targeted
  phage propagation (pfu) at different times after infection: effectively eliminated Φ12γ3 from the culture
